# T1: hu-IL-36β-Avi (in-vivo biotinylated) (human, site-specifically biotinylated in vivo on the C-terminal AviTag (BirA))
# T1 construct: also called biotinylated human IL-36β-Avi
# T1 chain: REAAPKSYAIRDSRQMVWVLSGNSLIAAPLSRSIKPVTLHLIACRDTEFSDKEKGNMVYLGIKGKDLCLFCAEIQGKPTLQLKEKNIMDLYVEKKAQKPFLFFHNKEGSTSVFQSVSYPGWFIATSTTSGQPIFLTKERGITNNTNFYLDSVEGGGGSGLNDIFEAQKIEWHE
# T2: hu-IL-36γ-Avi (in-vivo biotinylated) (human, site-specifically biotinylated in vivo on the C-terminal AviTag (BirA))
# T2 construct: also called biotinylated human IL-36γ-Avi
# T2 chain: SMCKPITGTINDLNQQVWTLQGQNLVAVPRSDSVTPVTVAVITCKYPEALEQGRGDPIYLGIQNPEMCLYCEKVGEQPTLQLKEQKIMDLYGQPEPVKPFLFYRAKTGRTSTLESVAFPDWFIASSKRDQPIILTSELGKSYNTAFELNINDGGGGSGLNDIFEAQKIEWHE
# T3: cy-IL-36β-Avi (in-vivo biotinylated) (cynomolgus monkey, site-specifically biotinylated in vivo on the C-terminal AviTag (BirA))
# T3 construct: also called cy-IL-36J-Avi [sic]; biotinylated cyno IL-36β-Avi
# T3 chain: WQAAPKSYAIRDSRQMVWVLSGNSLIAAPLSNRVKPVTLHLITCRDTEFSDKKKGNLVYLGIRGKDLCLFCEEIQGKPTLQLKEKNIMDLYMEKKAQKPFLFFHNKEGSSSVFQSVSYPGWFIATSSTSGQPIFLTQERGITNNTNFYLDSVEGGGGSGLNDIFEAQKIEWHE
# T4: hu-IL-36α-Avi (in-vivo biotinylated) (human, site-specifically biotinylated in vivo on the C-terminal AviTag (BirA))
# T4 construct: also called biotinylated human IL-36α-Avi
# T4 chain: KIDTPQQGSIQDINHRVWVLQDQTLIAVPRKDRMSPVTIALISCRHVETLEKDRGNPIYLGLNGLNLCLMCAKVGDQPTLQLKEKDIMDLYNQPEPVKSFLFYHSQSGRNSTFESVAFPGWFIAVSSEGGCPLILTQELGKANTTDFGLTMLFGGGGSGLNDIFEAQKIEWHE
# T5: cy-IL-36γ-Avi (in-vivo biotinylated) (cynomolgus monkey, limits assumed, site-specifically biotinylated in vivo on the C-terminal AviTag (BirA))
# T5 construct: also called biotinylated cyno IL-36γ-Avi
# T5 chain: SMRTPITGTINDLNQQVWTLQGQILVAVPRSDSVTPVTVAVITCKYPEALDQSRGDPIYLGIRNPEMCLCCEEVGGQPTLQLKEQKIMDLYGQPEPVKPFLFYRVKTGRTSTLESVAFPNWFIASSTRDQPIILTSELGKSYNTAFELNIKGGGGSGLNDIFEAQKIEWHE
# T6: hu-IL-36γ (human IL-36γ, N-terminally truncated active form S18-D169) (human, UniProt Q9NZH8 18-169)
# T6 sequence: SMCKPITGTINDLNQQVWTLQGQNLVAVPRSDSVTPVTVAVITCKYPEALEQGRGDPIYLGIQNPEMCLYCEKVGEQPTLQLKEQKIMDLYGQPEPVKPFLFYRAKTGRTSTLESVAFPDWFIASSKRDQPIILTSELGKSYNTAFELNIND
# T7: hu-IL-36β (human IL-36β, N-terminally truncated active form R5-E157) (human)
# T7 chain: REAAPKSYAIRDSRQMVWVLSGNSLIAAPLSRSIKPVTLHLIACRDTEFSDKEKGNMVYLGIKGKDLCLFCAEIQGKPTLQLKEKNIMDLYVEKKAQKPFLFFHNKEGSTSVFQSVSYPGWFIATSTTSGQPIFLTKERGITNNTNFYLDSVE
# T8: hu-IL-36α (human IL-36α, N-terminally truncated active form K6-F158) (human, UniProt Q9UHA7 6-158)
# T8 sequence: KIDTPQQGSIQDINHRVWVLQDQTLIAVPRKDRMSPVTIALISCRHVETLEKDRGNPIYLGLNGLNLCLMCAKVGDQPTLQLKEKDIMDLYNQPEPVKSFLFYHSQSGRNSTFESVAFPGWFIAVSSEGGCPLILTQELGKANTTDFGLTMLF
# Assays:
# [1] = target: T1, hu-IL-36β-Avi (in-vivo biotinylated); assay: SPR (Biacore 8K), in-vivo biotinylated IL-36-Avi captured on CAP chip, bispecific IgG injected, 37°C
# Method: (§1) Surface plasmon resonance (SPR) analysis was used to determine the binding affinity for human and cynomolgus monkey IL-36 (“hu-IL-36” and “cy-IL-36,” respectively) using a BIACORE™ 8K instrument as described in Example 2. […] Briefly, a 1:4 dilution of Biotin CAPture Reagent (GE Healthcare) into HBS-EP buffer (0.01 M HEPES pH 7.4, 0.15 M NaCl, 3 mM EDTA, 0.005% Surfactant P20) was applied to a CAP sensor chip at 2 μL/min flow rate. For kinetics measurements, 1 nM biotinylated human and cyno IL-36α-Avi, IL-36γ-Avi; 0.8 nM biotinylated human and cyno IL-36β-Avi were captured at 10 μL/min to achieve 15-25 response units in the second flow cell (FC2). FC1 was kept as a reference. […] The sensorgram was recorded and subject to reference and buffer subtraction before data analysis with the BIACORE® 8K Evaluation Software (version 1.1.1.7442). […] Association rates (kₒₙ) and dissociation rates (koff) were calculated using a simple one-to-one Langmuir binding model. The equilibrium dissociation constant (KD) was calculated as the ratio of koff/kₒₙ.
# [2] = target: T2, hu-IL-36γ-Avi (in-vivo biotinylated); assay: as above
# Method: as §1
# [3] = target: T3, cy-IL-36β-Avi (in-vivo biotinylated); assay: as above
# Method: as §1
# [4] = target: T4, hu-IL-36α-Avi (in-vivo biotinylated); assay: as above
# Method: as §1
# [5] = target: T5, cy-IL-36γ-Avi (in-vivo biotinylated); assay: as above
# Method: as §1
# [6] = target: T6, hu-IL-36γ (human IL-36γ, N-terminally …); assay: cell-based or functional assay
# [7] = target: T7, hu-IL-36β (human IL-36β, N-terminally …); assay: cell-based or functional assay
# [8] = target: T8, hu-IL-36α (human IL-36α, N-terminally …); assay: cell-based or functional assay
binder,measurement,setting,value
"mAb2.10/mAb6_2.7 multispecific common light chain antibody (IgG, knobs-into-holes, N297G) (bispecific antibody, tags removed; also called mAb2.10/mAb6_2.7 IgG; anti-IL-36 multispecific antibody) heavy 1: not shown heavy 2: not shown light: ESVLTQPPSVSGAPGQRVTISCTGSSSNIGAHYDVHWYQQLPGTAPKLLIYGNDNRPSGVPDRFSGSKSGTSASLAITGLQAEDEADYYCQSYDYSLSGYVFGGGTKLTVLGQPKAAPSVTLFPPSSEELQANKATLVCLISDFYPGAVTVAWKADSSPVKAGVETTTPSKQSNNKYAASSYLSLTPEQWKSHKSYSCQVTHEGSTVEKTVAPTECS",Kd,[1],1.84 nM
same,koff,[1],0.000168 s⁻¹
same,kon,[1],91400 M⁻¹ s⁻¹
same,Kd,[2],1.63 nM
same,koff,[2],0.000341 s⁻¹
same,kon,[2],210000 M⁻¹ s⁻¹
same,Kd,[3],2.51 nM
same,koff,[3],0.000218 s⁻¹
same,kon,[3],86900 M⁻¹ s⁻¹
same,Kd,[4],1.95 nM
same,koff,[4],0.000434 s⁻¹
same,kon,[4],223000 M⁻¹ s⁻¹
same,Kd,[5],0.94 nM
same,koff,[5],0.000148 s⁻¹
same,kon,[5],158000 M⁻¹ s⁻¹
same,% inhibition of IL-8 production in HEKa cells at 8 nM antibody,[6],100%
same,% inhibition of IL-8 production in HaCat cells at 8 nM antibody,[6],100%
same,"IC50, IL-36-mediated IL-8 production in HaCat cells",[6],~1.1 nM
same,"IC50, IL-36-mediated IL-8 production in primary human adult keratinocytes (HEKa)",[6],~2.7 nM
same,% inhibition of IL-8 production in HEKa cells at 8 nM antibody,[7],100%
same,% inhibition of IL-8 production in HaCat cells at 8 nM antibody,[7],100%
same,"IC50, IL-36-mediated IL-8 production in HaCat cells",[7],~0.13 nM
same,"IC50, IL-36-mediated IL-8 production in primary human adult keratinocytes (HEKa)",[7],~0.11 nM
same,% inhibition of IL-8 production in HEKa cells at 8 nM antibody,[8],100%
same,% inhibition of IL-8 production in HaCat cells at 8 nM antibody,[8],100%
same,"IC50, IL-36-mediated IL-8 production in HaCat cells",[8],~0.38 nM
same,"IC50, IL-36-mediated IL-8 production in primary human adult keratinocytes (HEKa)",[8],~0.56 nM
